Test results taken from publication PMC13299607.

B1: YFP-RepoMan-wt [not stated] / endogenous PP2A-B56γ [human (endogenous in HeLa)] (parent)
chain 1: MDANSKDKPPETKESAMNNAGNASFILGTGKIVTPQKHAELPPNPCTPDTFKSPLNFSTVTVEQLGITPESFVRNSAGKSSSYLKKCRRRSAVGARGSPETNHLIRFIARQQNIKNARKSPLAQDSPSQGSPALYRNVNTLRERISAFQSAFHSIKENEKMTGCLEFSEAGKESEMTDLTRKEGLSACQQSGFPAVLSSKRRRISYQRDSDENLTDAEGKVIGLQIFNIDTDRACAVETSVDLSEISSKLGSTQSGFLVEESLPLSELTETSNALKVADCVVGKGSSDAVSPDTFTAEVSSDAVPDVRSPATPACRRDLPTPKTFVLRSVLKKPSVKMCLESLQEHCNNLYDDDGTHPSLISNLPNCCKEKEAEDEENFEAPAFLNMRKRKRVTFGEDLSPEVFDESLPANTPLRKGGTPVCKKDFSGLSSLLLEQSPVPEPLPQPDFDDKGENLENIEPLQVSFAVLSSPNKSSISETLSGTDTFSSSNNHEKISSPKVGRITRTSNRRNQLVSVVEESVCNLLNTEVQPCKEKKINRRKSQETKCTKRALPKKSQVLKSCRKKKGKGKKSVQKSLYGERDIASKKPLLSPIPELPEVPEMTPSIPSIRRLGSGYFSSNGKLEEVKTPKNPVKRKDLLRHDPDLHMHQGYDKYDVSEFCSYIKSSSSLGNATSDEDPNTNIMNINENKNIPKAKNKSESENEPKAGTDSPVSCASVTEERVASDSPKPALTLQQGQEFSAGGQNAENLCQFFKISPDLNIKCERKDDFLGAAEGKLQCNRLMPNSQKDCHCLGDVLIENTKESKSQSEDLGRKPMESSSVVSCRDRKDRRRSMCYSDGRSLHLEKNGNHTPSSSVGSSVEISLENSELFKDLSDAIEQTFQRRNSETKVRRSTRLQKDLENEGLVWISLPLPSTSQKAKRRTICTFDSSGFESMSPIKETVSSRQKPQMAPPVSDPENSQGPAAGSSDEPGKRRKSFCISTLANTKATSQFKGYRRRSSLNGKGESSLTALERIEHNGERKQ
chain 2: not shown

Variants of: B1
Experiment: proximity ligation assay (PLA)
Conditions: with endogenous PP2A-B56γ [human (endogenous in HeLa)]; asynchronous; endogenous RepoMan knocked down using siRM; Anti-GFP+B56γ antibodies; median shown in red; read off a plot

| response (PLA foci per cell) | Variant |
| --- | --- |
| 10 | chain 1 P604A |

Same assay, conditions: with endogenous PP2A-B56γ [human (endogenous in HeLa)]; monastrol arrested; endogenous RepoMan knocked down using siRM; Anti-GFP+B56γ antibodies; median shown in red; read off a plot

| response (PLA foci per cell) | Variant |
| --- | --- |
| 19 | chain 1 P604A |

Variants of: B1
Experiment: immunofluorescence, dCas9-DARPin recruitment to ectopic foci on chr 1
Conditions: with mCherry-B56γ; prometaphase-arrested cells; average of 3 independent experiments, 58 (wt) 60 (P604A) cells; read off a plot

| response | Variant |
| --- | --- |
| 0.45 | chain 1 P604A |
